Data on one protein can be found in paper PMC10334339.

Substrate in this data set: O=c1[nH]c(=O)n([C@H]2C[C@H](O)[C@@H](COP(=O)(O)O)O2)cc1CO
The experiment in a line: purified protein. Format: biochemical, Homo sapiens.

B1: 2′-Deoxynucleoside 5′-monophosphate N-glycosidase 1 (DNPH1) (Homo sapiens) (protein)
chain: AAAMVPGRSESWERGEPGRPALYFCGSIRGGREDRTLYERIVSRLRRFGTVLTEHVAAAELGARGEEAAGGDRLIHEQDLEWLQQADVVVAEVTQPSLGVGYELGRAVAFNKRILCLFRPQSGRVLSAMIRGAADGSRFQVWDYEEGEVEALLDRYFEADPPGQVAASPDPTT
As a reminder, the Km is the substrate concentration at which the rate is half of its maximum. With B1, the Km is 6.3 ± 0.5 µM.
